{"source": "the RNAGym collection of RNA variant scans (doi:10.1093/molbev/msab373)", "parents": {"B1": {"name": "Azoarcus group I ribozyme (parent)", "chain": "GUGCCUUGCGCCGGGAAACCACGCAAGGGAUGGUGUCAAAUUCGGCGAAACCUAAGCGCCCGCCCGGGCGUAUGGCAACGCCGAGCCAAGCUUCGGCGCCUGCGCCGAUGAAGGUGUAGAGACUAGACGGCACCCACCUAAGGCAAACGCUAUGGUGAAGGCAUAGUCCAGGGAGUGGCGAAAGUCACACAAACCGG"}}, "data": [{"variants_of": "B1", "assay": "reverse-splicing fitness (ratio to wild type); higher = more active; in vitro selection; Mg2+ level not given", "how_it_was_run": "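An in vitro group I ribozyme library with randomized positions was T7-transcribed and gel-purified. In triplicate, 10 pmol RNA in EPPS pH 7.5 was reacted with 50 pmoles of a 30-nt RNA substrate for 1 h at 37 °C across several added MgCl2 levels (1–48 mM), then stopped with EDTA. Products were reverse transcribed from a substrate-complementary primer, PCR-amplified and sequenced (HiSeq 4000). Fitness is a variant's read proportion after selection over that before, normalised to wild type.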", "values": [{"variant": "GUGCCUUGCGCCGGGAAACCACGCAAGGGAUGGUGUCAAAUUCGGCGAAACCUAAGCGCCCGCCCGGGCGUAUGGCAACGCAGAGCCAAGCUUCGGCGCCUGCGCCGAUGAAGGUGUAGCGACUAGACGGCACCCACCUAAGGCCAACGGUAUGGUGAAGGCAUAGUCGAGGGAGAGGCGAAAGUCACACAAACCGG", "note": "[C82A A120C A145C C150G C169G U176A]", "reverse-splicing fitness": 0.00969}, {"variant": "GUGCCUUGCGCCGGGAAACCACGCAAGGGAUGGUGUCAAAUUCGGCGAAACCUAAGCGCCCGCCCGGGCGUAUGGCAACGCAGAGCCAAGCUUCGGCGCCUGCGCCGAUGAAGGUGUAGCGACUAGACGGCACCCACCUAAGGCCAACGGUAUGGUGAAGGCAUAGUCGAGGGAGCGGCGAAAGUCACACAAACCGG", "note": "[C82A A120C A145C C150G C169G U176C]", "reverse-splicing fitness": 0.00971}, {"variant": "GUGCCUUGCGCCGGGAAACCACGCAAGGGAUGGUGUCAAAUUCGGCGAAACCUAAGCGCCCGCCCGGGCGUAUGGCAACGCAGAGCCAAGCUUCGGCGCCUGCGCCGAUGAAGGUGUAGCGACUAGACGGCACCCACCUAAGGCCAACGGUAUGGUGAAGGCAUAGUCGAGGGAGGGGCGAAAGUCACACAAACCGG", "note": "[C82A A120C A145C C150G C169G U176G]", "reverse-splicing fitness": 0.00575}, {"variant": "GUGCCUUGCGCCGGGAAACCACGCAAGGGAUGGUGUCAAAUUCGGCGAAACCUAAGCGCCCGCCCGGGCGUAUGGCAACGCAGAGCCAAGCUUCGGCGCCUGCGCCGAUGAAGGUGUAGCGACUAGACGGCACCCACCUAAGGCCAACGUUAUGGUGAAGGCAUAGUCAAGGGAGUGGCGAAAGUCACACAAACCGG", "note": "[C82A A120C A145C C150U C169A]", "reverse-splicing fitness": 0.00982}, {"variant": "GUGCCUUGCGCCGGGAAACCACGCAAGGGAUGGUGUCAAAUUCGGCGAAACCUAAGCGCCCGCCCGGGCGUAUGGCAACGCAGAGCCAAGCUUCGGCGCCUGCGCCGAUGAAGGUGUAGCGACUAGACGGCACCCACCUAAGGCCAACGGUAUGGUGAAGGCAUAGUCCAGGGAGAGGCGAAAGUCACACAAACCGG", "note": "[C82A A120C A145C C150G U176A]", "reverse-splicing fitness": 0.0063}, {"variant": "GUGCCUUGCGCCGGGAAACCACGCAAGGGAUGGUGUCAAAUUCGGCGAAACCUAAGCGCCCGCCCGGGCGUAUGGCAACGCAGAGCCAAGCUUCGGCGCCUGCGCCGAUGAAGGUGUAGCGACUAGACGGCACCCACCUAAGGCCAACGGUAUGGUGAAGGCAUAGUCCAGGGAGGGGCGAAAGUCACACAAACCGG", "note": "[C82A A120C A145C C150G U176G]", "reverse-splicing fitness": 0.00331}, {"variant": "GUGCCUUGCGCCGGGAAACCACGCAAGGGAUGGUGUCAAAUUCGGCGAAACCUAAGCGCCCGCCCGGGCGUAUGGCAACGCAGAGCCAAGCUUCGGCGCCUGCGCCGAUGAAGGUGUAGCGACUAGACGGCACCCACCUAAGGCCAACGGUAUGGUGAAGGCAUAGUCCAGGGAGCGGCGAAAGUCACACAAACCGG", "note": "[C82A A120C A145C C150G U176C]", "reverse-splicing fitness": 0.0119}, {"variant": "GUGCCUUGCGCCGGGAAACCACGCAAGGGAUGGUGUCAAAUUCGGCGAAACCUAAGCGCCCGCCCGGGCGUAUGGCAACGCAGAGCCAAGCUUCGGCGCCUGCGCCGAUGAAGGUGUAGCGACUAGACGGCACCCACCUAAGGCCAACGUUAUGGUGAAGGCAUAGUCCAGGGAGUGGCGAAAGUCACACAAACCGG", "note": "[C82A A120C A145C C150U]", "reverse-splicing fitness": 0.035}, {"variant": "GUGCCUUGCGCCGGGAAACCACGCAAGGGAUGGUGUCAAAUUCGGCGAAACCUAAGCGCCCGCCCGGGCGUAUGGCAACGCAGAGCCAAGCUUCGGCGCCUGCGCCGAUGAAGGUGUAGCGACUAGACGGCACCCACCUAAGGCCAACGGUAUGGUGAAGGCAUAGUCUAGGGAGAGGCGAAAGUCACACAAACCGG", "note": "[C82A A120C A145C C150G C169U U176A]", "reverse-splicing fitness": 0.00681}, {"variant": "GUGCCUUGCGCCGGGAAACCACGCAAGGGAUGGUGUCAAAUUCGGCGAAACCUAAGCGCCCGCCCGGGCGUAUGGCAACGCAGAGCCAAGCUUCGGCGCCUGCGCCGAUGAAGGUGUAGCGACUAGACGGCACCCACCUAAGGCCAACGGUAUGGUGAAGGCAUAGUCUAGGGAGGGGCGAAAGUCACACAAACCGG", "note": "[C82A A120C A145C C150G C169U U176G]", "reverse-splicing fitness": 0.00498}, {"variant": "GUGCCUUGCGCCGGGAAACCACGCAAGGGAUGGUGUCAAAUUCGGCGAAACCUAAGCGCCCGCCCGGGCGUAUGGCAACGCAGAGCCAAGCUUCGGCGCCUGCGCCGAUGAAGGUGUAGCGACUAGACGGCACCCACCUAAGGCCAACGGUAUGGUGAAGGCAUAGUCUAGGGAGCGGCGAAAGUCACACAAACCGG", "note": "[C82A A120C A145C C150G C169U U176C]", "reverse-splicing fitness": 0.0105}, {"variant": "GUGCCUUGCGCCGGGAAACCACGCAAGGGAUGGUGUCAAAUUCGGCGAAACCUAAGCGCCCGCCCGGGCGUAUGGCAACGCAGAGCCAAGCUUCGGCGCCUGCGCCGAUGAAGGUGUAGCGACUAGACGGCACCCACCUAAGGCCAACGUUAUGGUGAAGGCAUAGUCAAGGGAGCGGCGAAAGUCACACAAACCGG", "note": "[C82A A120C A145C C150U C169A U176C]", "reverse-splicing fitness": 0.00786}, {"variant": "GUGCCUUGCGCCGGGAAACCACGCAAGGGAUGGUGUCAAAUUCGGCGAAACCUAAGCGCCCGCCCGGGCGUAUGGCAACGCAGAGCCAAGCUUCGGCGCCUGCGCCGAUGAAGGUGUAGCGACUAGACGGCACCCACCUAAGGCCAACGUUAUGGUGAAGGCAUAGUCAAGGGAGAGGCGAAAGUCACACAAACCGG", "note": "[C82A A120C A145C C150U C169A U176A]", "reverse-splicing fitness": 0.0161}, {"variant": "GUGCCUUGCGCCGGGAAACCACGCAAGGGAUGGUGUCAAAUUCGGCGAAACCUAAGCGCCCGCCCGGGCGUAUGGCAACGCAGAGCCAAGCUUCGGCGCCUGCGCCGAUGAAGGUGUAGCGACUAGACGGCACCCACCUAAGGCCAACGGUAUGGUGAAGGCAUAGUCUAGGGAGUGGCGAAAGUCACACAAACCGG", "note": "[C82A A120C A145C C150G C169U]", "reverse-splicing fitness": 0.00982}, {"variant": "GUGCCUUGCGCCGGGAAACCACGCAAGGGAUGGUGUCAAAUUCGGCGAAACCUAAGCGCCCGCCCGGGCGUAUGGCAACGCAGAGCCAAGCUUCGGCGCCUGCGCCGAUGAAGGUGUAGCGACUAGACGGCACCCACCUAAGGCCAACGGUAUGGUGAAGGCAUAGUCGAGGGAGUGGCGAAAGUCACACAAACCGG", "note": "[C82A A120C A145C C150G C169G]", "reverse-splicing fitness": 0.00784}]}]}
